Assays:
Test in all cases: luciferase-based plate binding assay; supernatant (100 uL/well) with E2-16Fc or a mutant form held on protein A-coated 96-well plates, room temperature, 1 h; PBS-T wash; CD81-Luc supernatant (2.5x10^6 units of luciferase activity in 30 uL) added for 1 h, with or without 1H8 (10 or 50 ug/reaction); PBS-T rinse; bound luciferase activity read
Conditions in all cases: partners not purified
E2-16Fc T526A = target: T1, E2-16Fc T526A (Hepatitis C virus genotype 1a, H77 …, UniProt P27958 384-661, T526A)
T1 construct: HCV envelope glycoprotein E2, residues 384-661, HCV genotype 1a H77 strain, single site mutant of E2-16Fc; Same construct as m1 with one substitution; source: Huh7, transiently transfected, secreted into the cell culture medium (supernatant)

E2-16Fc Y527A = target: T2, E2-16Fc Y527A (Hepatitis C virus genotype 1a, H77 …, UniProt P27958 384-661, Y527A)
T2 construct: HCV envelope glycoprotein E2, residues 384-661, HCV genotype 1a H77 strain, single site mutant of E2-16Fc; Same construct as m1 with one substitution; source: Huh7, transiently transfected, secreted into the cell culture medium (supernatant)

E2-16Fc W529A = target: T3, E2-16Fc W529A (Hepatitis C virus genotype 1a, H77 …, UniProt P27958 384-661, W529A)
T3 construct: HCV envelope glycoprotein E2, residues 384-661, HCV genotype 1a H77 strain, single site mutant of E2-16Fc; Same construct as m1 with one substitution; source: Huh7, transiently transfected, secreted into the cell culture medium (supernatant)

B1: CD81-Luc (large extracellular domain of human CD81, residues 113-201, fused with gaussia luciferase) (domain or fragment, UniProt P60033 113-201, looked up)
chain: FVNKDQIAKDVKQFYDQALQQAVVDDDANNAKAVVKTFHETLDCCGSSTLTALTTSVLKNNLCPSGSNIISNLFKEDCHQKIDDLFSGK
notes: human CD81, large extracellular domain, residues 113-201; source: Huh7, transiently transfected, secreted into the cell culture medium (supernatant)
percent reduction of binding compared to the wild-type E2-16Fc (E2-16Fc T526A): 83.1%
percent reduction of binding compared to the wild-type E2-16Fc (E2-16Fc Y527A): 98.4%
percent reduction of binding compared to the wild-type E2-16Fc (E2-16Fc W529A): 99.2%
